According to the RNAGym collection of RNA variant scans (doi:10.1073/pnas.2313332121):

B1: TPR t1 (parent)
chain: GACCAAUCUGCCCUCAGAGCUCGAGAACAUCUUCGGAUGCAGAGGAGGCAGGCUUCGGUGGCGCGAUAGCGCCAACGUCCUCAACCUCCAAUGCAUCCCACCACAUGAUGAUGCCUGAAGAGCCUUGGUUUUUUG

Variants of: B1
Assay: polymerase ribozyme fitness, log enrichment relative to wild type (log ratio); higher = more active; in vitro selection for triplet polymerase activity
How it was run: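 Each subunit of a heterodimeric triplet polymerase ribozyme was represented by a PCR-built, transcribed mutant library that underwent triplicate single-round in vitro selection with frozen incubation at −7 °C. Extended constructs were recovered by gel excision, streptavidin-bead capture and RT-PCR, and Illumina sequencing of input and output libraries kept genotypes with ≥10 input reads and ≥1 read per output. Fitness is the logarithm of genotype enrichment relative to wild-type enrichment, from inverse-variance-weighted replicate averages, with a logarithm base of 2.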

Variant	polymerase ribozyme fitness (log ratio)
U9A C72A A83U U129A	-0.91
U9C C49A A91C C104U	-1.34
U9A C13A G42C A43U A100U	-3.76
U9G C11A C70A U87A	-2.04
U9G A26G C70G A84U U112A	-4.4
C8U U59G U96A G110U	-2.31
U9C C40G G69A C101U	-2.3
U9C C13G	0.844
U9G C72U C102A G122A U125A	-1.75
U9G A43C	-1.01
U9C G60U C62U U78G C80A U112C	-1.95
C8U C40U G52A C79G	-0.696
U9A A16U C64U C73U	0.678
C8U C11U A50U	-1.25
C8U U87A U112C G117U U130C	-0.73
U9C C40G U55A C76A C88G	-4.6
C8U C64U C101G G110A	-3.18
C8U A29C U55A C56G C88A U112A U130C	-3.36
U9C U112A C114G	0.928
U9C C11U U78C C82G A83U	-0.241
U9A G117U	-1.08
C8U A18U C20A A95U G117A	-3.83
C8U C53G	-0.0198
C8U G52U A105G	-3.89

Variant	polymerase ribozyme fitness (log ratio)
C8U A84C G117A	-0.216
U9C C28G G52U	-3.99
C8U C56A U81G G120C	0.594
C8U C56U C82A C97A G117C	-7.35
C8U G63C C102U	-2.5
U9C U38G G61C C101A	-3.61
C8U G10C C13A C34A C40U C98G A103C	-3.92
C8U A26U C49G C79U G93A	-4.36
C8U C123A	0.745
U9C G60A U130A	0.434
C8U C76G A90C C101U	-1.52
U9C C73A C85G	-0.637
U9A G63U U96G G128A	-2.96
C8U G17C G36C	-4.86
U9A C11U G52A	-0.401
U9G C70G	-2.02
U9G C70A	-1.08
U9C C79U	0.385
U9A G19U G42A A46G U78C	-4.66
C8U U78C U92G C115A A119U	-0.985
U9G A18C C40G A91C G93C C94A A105G	-5.58
U9C G69U G71U U92A	-3.04
C8U G35A	-3.11
U9C C101G C104U U116C	-2.48

Variant	polymerase ribozyme fitness (log ratio)
C8U A50G U78A C85A	-0.938
C8U G47C G77C U129G	-3.36
U9C C13A C102U A111C	-0.646
C8U C20U U38G C62G G113U	-3.27
U9A C13U G19U U78A A91G	-3.32
U9C G10A G93A	-0.147
U9A G44C C80A U96C	-3.87
U9G A50C	-0.315
C8U U59G A75U U81G C124U	-2.31
U9C G36A C85U C123A	0.00121
U9G C13U C89A G107A C114U	-1.8
U9A C13A G51U C94G	-4.04
C8U U14A G61U C70U C104U C124A G135C	0.783
U9G A37U C40U G45A C72U C104U	-0.789
C8U C56A	0.00842
C8U C56U	0.434
C8U C88A A90U	-0.855
C8U A50G C72G	-0.53
U9C G57U C114U G128C U130C	-1.68
U9A G47U G63C U130C	0.0031
C8U G60U U106A G122A	0.855
U9A A16U C89U	-0.38
U9C U78G U81A	-0.22
U9A U14G C73G G117C	-1.75

Variant	polymerase ribozyme fitness (log ratio)
U9C C80U A91G	-0.111
C8U C56U C70A	-4.3
U9G C88U G93C	-0.642
U9C A16U G52U	-0.423
C8U A41C A91C C123U	0.0486
C8U G51U	-2.45
U9A C31G C73G C85A U109C	-5.57
U9A G71U C104U	0.24
U9A C31U G44U G52U A111U	-5.37
U9C C56G C62G	-3.04
C8U G61A A84C	0.393
U9A A84U U92A U116G U132C	-4.07
U9A G69C	-0.589
U9A G52C C94U C101A	-1.78
C8G U9G C28G G42U G48U U55A C104U G120C	-3.54
U9A G45A	-0.107
U9G C56A C79G	-1.55
U9C G23U C31U A41G G52A C82G A83C A121C	-6.19
U9A G47U A50C	-1.68
U9G C76U	0.331
C8U U92A G93A	-4.46
U9C G113A	-0.364
C8U C104U	0.275
U9A C56A G77U G117U	0.546

Variant	polymerase ribozyme fitness (log ratio)
C8U G36U G39A G48U C72A U106A	-1.69
U9A U32A A37U A46C C56A A111G	-4.29
C8U C64A C115U	-6.79
U9A G36C	0.19
U9A C73U G113A	-0.0138
U9C G58A A100U	-0.581
U9A C15A A37G C56U G65A C79G C86G C115A	-7.1
U9A U32C G36C	-0.0123
U9C G10A	0.0311
C8U C13A G71U C79U	-1.19
C8U C64U	0.265
C8U A43G G48U C101A	-3.37
U9A G35U C72U G77A C124G U126A	-5.65
C8U C22U C53U A100U	-5.15
U9G C80U C98U G110U	-3.68
U9A U116C	0.0652
U9G A18U C40U	-0.788
U9C A41C C53G A68G C73U	-5.47
U9C C49A C86U C94A G113A	-1.52
U9A G107U G117C	-6.35
U9A G63U U78A G93C C124G G128C	-3.75
U9A C40U A46U C56U C115G U131G	-1.77
U9A A24G G42A G52C C72A	-3.17
C8G U78A G113U C115A G120C	-2.48

Variant	polymerase ribozyme fitness (log ratio)
U9A A26G A50U	-1.68
C8U G61A C99U	-2.24
U9C G117A	0.892
U9A G61A A75U U96G A121G U129C G135U	0.515
U9A C11G G93U A100G	-5.7
U9C G47C U132C	-1.22
C8U C13U A43G	-1.25
C8G U87C A105C C124G	0.541
U9A A43C C82G A108G C123G U131A	-5.6
C8U A26G C49U G57C U112A	-0.963
U9G C72A A95G	0.389
U9G C20U U87G	-0.825
U9C G63U C104U	-0.467
U9A G10U G44U G60A C89G G127C	-2.63
C8U C70G U78C G113A A121G	-3.57
C8U A46C G63U U106C	-1.81
C8U U78A G93U C101G C104A C124U	-3.7
C8U C20U U78C C82G C123U	0.246
C8U C13U C28G C82G C114G	-4.82
U9G C56U G65C A105U U109C	-6.39
U9C G17A A18G G113U	-4.74
U9C A41C C53G	-0.677
U9A G52U C88U C124A	0.944
U9A C15U A41U G60U U92C C123A	-0.568

Variant	polymerase ribozyme fitness (log ratio)
C8U G117U	-1.38
U9G C15G U81A U109G G127C	-5.35
C8G U125A	0.0447
C8U G48A C72U	0.0222
U9G C62A U92A C104U	-4.41
U9C G122A	-0.428
C8G U14C C79U U87A U112A	2.12
U9A C22U C49A C86A	-5.1
U9C A29U U129A	-2.08
C8U G23C C34U G61A G93A U109C	-6.59
U9G A46U U55G A103C	-4.6
C8U A37C C53U	0.264
U9A A103G	-3.9
U9A C20U G71U A91C G107A G117A	-6.01
U9C U14C U33G G51A G69U A118G	-5.88
U9A C86A C98U	-0.22
U9C U92G	-1.58
U9A A37C G63A	-0.704
U9C A41C U87C C114U	-0.644
C8U A37G C56U C73G G110U A119U	-3.74
C8G U116C	-0.0708
C8U G44A G60A A121C G122U	-1.04
U9C G39C G128C	-1.84
